# According to patent publication WO2016002189A1 (dated 2016):
# T1: human GLP-2 (manufactured by Yanaihara Laboratories) (human, UniProt P01275 146-178)
# T1 construct: also called glucagon-like peptide-2
# T1 peptide (looked up): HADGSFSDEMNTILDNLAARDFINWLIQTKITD
# T2: human GLP-1 (manufactured by Yanaihara Laboratories) (human, UniProt P01275 98-127, limits assumed)
# T2 construct: also called glucagon-like peptide-1
# T2 peptide (looked up): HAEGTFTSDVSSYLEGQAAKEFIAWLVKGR
# T3: peptide consisting of amino acid residues 111 to 144 of proglucagon
# T3 construct: Synthetic peptide; also called proglucagon (111-144); proglucagon 111-144 antigen
# T3 peptide: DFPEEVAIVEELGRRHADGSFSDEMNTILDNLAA
# B1: SCC-MGD-913Ab (antibody, V domains shown)
# VH: DVKLVESGGGLVKPGGSLKLSCAASGFTFSSFAMTWVRQTPEKRLEWVATISNGGSYTYYPDSVKGRFTISRDNAKNTLYLQMSSLRSEDTAMYYCTRDGAGKGFPLDYWGQGTTLTVSS
# VL: NILLTQSPSSLAVSAGEKVTMSCKSSQSVFYSSNQKNYLAWYQQKPGQSPKLLIYWASTRESGVPDRFTGSGSGTDFTLTISSVQAEDLAIYYCHQYFSSLTFGAGTKLELK
# notes: Mouse hybridoma monoclonal from immunisation with the proglucagon 111-144 peptide
# Key:
# [1] = target: T1, human GLP-2 (manufactured by Yanaihara …); assay: competitive ELISA with biotinylated proglucagon (111-144) as labelled antigen
# [2] = target: T2, human GLP-1 (manufactured by Yanaihara …); assay: as above
# [3] = target: T4, human glucagon (manufactured by Yanaihara Laboratories) (human, UniProt P01275 53-81); assay: as above
# T4 construct: Glucagon is only the 29-residue hormone cut from it
# [4] = target: T3, peptide consisting of amino acid …; assay: ELISA screening of hybridomas against the proglucagon peptides
# proglucagon = target: T5, proglucagon (Homo sapiens (Human), UniProt P01275 21-180); assay: epitope assay (chemiluminescent immunoassay)
# T5 construct: Native protein in culture supernatants or HPLC fractions of human duodenal cancer cell lines, not purified recombinant protein; also called proglucagon protein
# T5 sequence (P01275 21-180): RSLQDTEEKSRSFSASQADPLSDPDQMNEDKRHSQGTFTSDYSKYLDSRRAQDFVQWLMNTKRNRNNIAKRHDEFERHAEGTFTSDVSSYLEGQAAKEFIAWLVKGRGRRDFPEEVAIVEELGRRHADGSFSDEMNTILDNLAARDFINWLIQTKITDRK
# T4 sequence (P01275 53-81): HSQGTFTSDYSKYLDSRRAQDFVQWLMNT
binder,measurement,setting,value
B1,binding result,[1],no binding
same,binding result,[2],no binding
same,binding result,[3],no binding
same,binding result,[4],binds
same,binding result,proglucagon,binds
